The source of these data is the nanobody polyreactivity screen of Harvey et al. (2022).

The data set in a line: yeast display, Sf9 membrane polyspecificity reagent, FACS + sequencing; frameworks hold sequencing errors. The gist of the method: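 Genes from sorted yeast were amplified by colony PCR, read by MiSeq 2 × 250 sequencing and filtered on CDR length. These cells carried a synthetic nanobody library in Saccharomyces cerevisiae BJ5465 and were sorted by FACS into low and high (top ~1%) gates on anti-HA and streptavidin fluorescence. Polyreactivity is labelled according to the gate of origin.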
In the case of “QVQLVESVGGVVQAGGSLRLSCAASGFTFKYYDMGWYRQAPGKERELVAAISRRGGSTSYADSVKGRFTISRDNAKNTVYLQMNSLKPEDTAVYYCAADSSFERSSDYWGHGTQVTVSS”, the “polyreactivity (PSR sort gate)” value is recorded as “high polyreactivity”.

With “QVQLVESVGSLVQAGVSLRLSCAASGFILYANAMGWYRQAPGKERELGAAISRGTSTYYADSVKGRFTISRDNAKNTVYLQMTSLKPEDTAVYYCATSSYRPWGGYYWGQGTQVTVSS”, the “polyreactivity (PSR sort gate)” value is “high polyreactivity”.

With “QVQLVESVGVLDQAGGSLRLSCAASGFTFVRYAMGWYRQAPGKERELVAAISGSGGRTYYADSVKGRFTISRDTAKNTVYLQLNSLKPEDTAVYYCAAVYLVTRGARYEYWGQGTQVTVSS”, the “polyreactivity (PSR sort gate)” value is “high polyreactivity”.

With “QVQLVESVGVLVQAGGSLRLSCAASGRTFYRNAVGWYRQAPGKERELVAAISRSGTRTYYADSVKGRFTISRDNATNTVYLQMNSLKPEDTAVYYCNALRVDGGDYWGQGTQVTVSS”, the “polyreactivity (PSR sort gate)” value is “high polyreactivity”.

Take “QVQLVESVRGLVQAGGSLRLSCAASGSTFDNNAMGWYRQAPGKEREFVAAITYSGGGSTSYADSVKGRFTISRDNAKNTVYLQMNSLKPEDPAVYDCAAREFETDGYSLVAYNYWGQGTQVTVSS”: the “polyreactivity (PSR sort gate)” value is on record as “low polyreactivity”.

As to “QVQLVESVRGSVQAGGSLRLSCAASGSTFYENAMGWYRPAPGKVRELVAAITWSGGRTYYADSVKGRFTISRDNAKNTVYLQMYSLKAEDTAVYYCNARARSRKFYYWGQGTQVTVSS”, the “polyreactivity (PSR sort gate)” value is reported as “high polyreactivity”.

As for “QVQLVESVVGLVQAGGSLRLSCAASGSTFLPYTMGWYRQAPGKETELVAGISGSGPRTYYADSVKGRFTISRDNAKNTVYLQMNSLKPEDTAVYYCAKKSSYRYGYWGQGTQVTVSS”, the “polyreactivity (PSR sort gate)” value was “high polyreactivity”.

In the case of “QVQLVESWAGLVQAGGSLRLSCAASGRTFAYNAMGGYRQAPGSERELVAAITWSGDSTYYADSVKGRFTISRDNAKKTVYLQMNSQKPEDTAVNYCAAGLVFHYYAPKSYYLGYDYWGQGTQVTVSS”, the “polyreactivity (PSR sort gate)” value is given as “low polyreactivity”.

Consider “QVQLVESWGCLVQAGGSLRLSCAASGFTFESNAMGWYRQAPGKERELVAAITSSGGRTYYADSVKGRFTISRVNAKNTVYLQMNSLNPEDSAVYYCAATGKAPRESGGVYSMDWGQGTQVTVSS”, for which the “polyreactivity (PSR sort gate)” value is recorded as “low polyreactivity”.

Take “QVQLVESWGCLVQAGGSLRLSCAASRSTFLSYAMGWDRQAPGKERELVAAISWSGGRTYYADSVKGRFTISRDHAKNTVYLQMNSLKPDDSAVYYCNAGQGYRAPLYNLYDYWGQGTQVTVSS”: the “polyreactivity (PSR sort gate)” value is listed as “low polyreactivity”.

Turning to “QVQLVESWGGLDQAGGSLRLSCAASGIIFQYYAMGWYRQAPGKERELVAAISWSGGSTYYADSVKGRFTISRDNAKNTVYLQMNSLKPEDTAVYYCAARSRSYWPYEGDYWGQGSQVTVSS”, the “polyreactivity (PSR sort gate)” value is recorded as “low polyreactivity”.

Turning to “QVQLVESWGGLDQAGGSLRLSCAASGRTIRRYAMGCYRQAPGKERELVASISTSGGSTNADSVKGRFTISRDNSKNTVYLQMNSLKPEDTAVYYCAVRYPRYVRNGDYWGQGTQVTVSS”, the “polyreactivity (PSR sort gate)” value is reported as “high polyreactivity”.

On to “QVQLVESWGGLVHAGGSLPLSCADSGITFFYYAMGWYRQAPGKEREFVAAISTSGGRTYYADSVKGRFTISRDNAKNTVYLQMNSLKPEDTAVYYCAARSRVPPAGPRYDYWGQGTQVTVSS”, for which the “polyreactivity (PSR sort gate)” value is recorded as “high polyreactivity”.

Turning to “QVQLVESWGGLVQAGCSLRLSCAPSGSIFRTNAMGWYREAPGKQRELLAAITGSGGSTNYADSVKGRFTISRDNAKNTVYLQMNSLKPEDTADYYCAAEFGSLLSPYNYYYWGQGTQVTVSS”, the “polyreactivity (PSR sort gate)” value is “low polyreactivity”.

For the sequence “QVQLVESWGGLVQAGGNLRLSCAASGFIFTRYAMGWYRPAPGTERELVAAISTSGDRTYYADSVKGRFTISRDNAKNTVYLQMNSLKPEDTAVYYCAVVRPRSVVRYDYWGQGTQVTVSS”, the “polyreactivity (PSR sort gate)” value is recorded as “high polyreactivity”.

Regarding “QVQLVESWGGLVQAGGRLRLSCAASGIIFHRNAMGWYRQAPGKQRELVAAISERGGSTYYADSVKGRFTISRDNAKNTVYLQMNSLKPEDTAVYYCIADGFYRGGYWGQGTQVTVSS”, the “polyreactivity (PSR sort gate)” value is “low polyreactivity”.

Take “QVQLVESWGGLVQAGGSHRLSCAASGRTFGIYAMGWYRQAPGKERELVATISWRGGSTYYADSVKGRFTISRDNAKNTVYLQMNSLKPEDTAVYYCAAGYYPYWGQGTQVTVSS”: the “polyreactivity (PSR sort gate)” value is recorded as “low polyreactivity”.

For “QVQLVESWGGLVQAGGSLRLRCAASGSTSLGYAMGWYRQAPGKERELVASISWTGGGKYYADSVKGRFTISRDNAKNTVYLQMNSLKPEDTAVYYCAADLTGYHPYIYGYWGQVTQVTVSS”, the “polyreactivity (PSR sort gate)” value is listed as “low polyreactivity”.

For the sequence “QVQLVESWGGLVQAGGSLRLSCAASGFIFRYYAMGWYRQAPGKERELVAAISWSGGSTYYADSVKGRFTISRDNAKYTVYLQMNSLKPVDTAVYYCAADKRGSVYLSSFWMDYWGQGSQVTVSS”, the “polyreactivity (PSR sort gate)” value was “low polyreactivity”.

Regarding “QVQLVESWGGLVQAGGSLRLSCAASGFIMQWYAMGWDRQAPGKERELVAGISSGTSTYYADSVKGRFTISRDNAKNTVYFQMNSLKAEDTAVYYCTWFVFDPEDYWGQGTQVTVSS”, the “polyreactivity (PSR sort gate)” value was “low polyreactivity”.

As for “QVQLVESWGGLVQAGGSLRLSCAASGFTFTGYAMGWYRQAPGKERELVAAISQSGGSTYADSVKGRFTISRDNAKNTVYLQMNSLKPEDTAVYYCAAVWFLLTEYDYWGQGTQVTVSS”, the “polyreactivity (PSR sort gate)” value is “low polyreactivity”.

On to “QVQLVESWGGLVQAGGSLRLSCAASGIIFAAYAMGWYRQAPGKERELVATITSSGGSTFYADSVKGRFTISRDNAKNTVYLQMNSLKPEDTAVYYCAADTWGLWFWGPLFSKYGYWGQGTQVTVSS”, for which the “polyreactivity (PSR sort gate)” value is given as “low polyreactivity”.

Regarding “QVQLVESWGGLVQAGGSLRLSCAASGIIFRYYAIGWYRKAPGKERELVAAISRSGARTYYADSVKGRFTISRDNAKNTVYLQMNSLKPEDTAVYYCATEPTSGRFYYWGQGTQVTVSS”, the “polyreactivity (PSR sort gate)” value was “high polyreactivity”.

For “QVQLVESWGGLVQAGGSLRLSCAASGRIFDRYAMGWYRQAPGKERELVASISSGGSTYYADSVKGRFTISRDNAKNTVYLQMNSLKPEDTAVYYCNAEARSRRYRYEYWGQGTQVTVSS”, the “polyreactivity (PSR sort gate)” value was “high polyreactivity”.

For the sequence “QVQLVESWGGLVQAGGSLRLSCAASGRIFSYYAMGWYRQAPGKERELVAAISRTGGTTYYADSVKGRFTISRDNAKNTVYLQMNSLKPEDTAVYYCNAVKAPYLRYDYWGQGTQVTVSS”, the “polyreactivity (PSR sort gate)” value was “high polyreactivity”.

“QVQLVESWGGLVQAGGSLRLSCAASGRIFYGYAMAWYRQAPGKEREFVAAITVSAGSTYYADSVKGRFTISRDNAKNTVYLQMNSLKPEDTEVYYCAAKRYVYTSYRFVYWGQGTQVTVSS”: the “polyreactivity (PSR sort gate)” value was “low polyreactivity”.

Regarding “QVQLVESWGGLVQAGGSLRLSCAASGSIFDVNAMGWYRQAPGKERELVAAISDSGGSTYYADSVKGRFTISRDNAKNTVYLQMNSLKPEDTAVYYCNADWSWYNYYDFDYWGQGTQVTVSS”, the “polyreactivity (PSR sort gate)” value is recorded as “low polyreactivity”.

Take “QVQLVESWGGLVQAGGSLRLSCAASGSIFRGYAMGWYRQAPGKGRELVAAISWSGASTYYADSVKGRFTISRDNAKNTVYLKMNSLKPEDTAVYYCAAVQWTGYPFDYWGQGTQVTVSS”: the “polyreactivity (PSR sort gate)” value is given as “high polyreactivity”.

For “QVQLVESWGGLVQAGGSLRLSCAASGSTFASYVMGWSRQAPGKERELVAAISRSGGSTYYADSVKGRFTISRDNAKYTVYLQMNSLKPEDTAVYYCNAPYLIYKKGRYDYWGQGTQVTVSS”, the “polyreactivity (PSR sort gate)” value was “high polyreactivity”.

Turning to “QVQLVESWGGLVQAGGSLRLSCAASGSTFVINAMGWYSQAPGKERELVAAITWGGGRTYYADSVKGRFTISRDNAKNTVYLQMNSLKPEDTAVYYCAAVGSGWKGDYWGQGTQVTVSS”, the “polyreactivity (PSR sort gate)” value is reported as “low polyreactivity”.

For “QVQLVESWGGLVQAGGSLRLSCAASGSTFVVIAMGWYRLAPGKERELVAAISTSGGTTYYADSVKGRFTISRDNAKNTVYLQMNSLKPEDTAVYYCAAGGKKRDDYWGQGTQVTVSS”, the “polyreactivity (PSR sort gate)” value is “high polyreactivity”.

Regarding “QVQLVESWGGLVQAGGSLRLSCAASGSTLYQYDMGWYRHAPGKEREYLAAITTYGDSTYYADSVKGRFTISRDNAKNTVYLQMNSLKPEDTAVYYCNADVFKTVFYIDRYYYWGQGTQVTVSS”, the “polyreactivity (PSR sort gate)” value is reported as “low polyreactivity”.

Turning to “QVQLVESWGGLVQAGGTLRLSCAPSGYIFYFNDMGCYIQAPGKERELVAAITWSGTGTYYADSVKGRFTISRDNAKNTVYLQMNSLKPEDTAVYYCAAREWTSQDRQHNYWGQGTQVTVSS”, the “polyreactivity (PSR sort gate)” value was “low polyreactivity”.

On to “QVQLVETAGGLVQAGGSLRLSCAASGSTFYTNAMGWYRQAPGKERELVAAISGSGGSTYYADSVKGRFTISRDNAKNTVYLQMISLKPEDTAVYNCAARSRYYDTRFDYWGQGTQVTVSS”, for which the “polyreactivity (PSR sort gate)” value was “low polyreactivity”.

Take “QVQLVETAGGLVQAGGSLRLSCAASGSTIRYNVMGWYRQAPGKERELVAAITINGGSTNYADSVKGRFTISRDNAKNTVYLQMNSLKPEDTAVYYCAAAKSYRSGSWYEYWGQGTQVTVSS”: the “polyreactivity (PSR sort gate)” value was “high polyreactivity”.

As for “QVQLVETCGGIVQAGGSLRLSCAASGITFALYAMGWYRESPGKERELVAAISYSGGRSYYADSVKGRFTISRDHAQNTVNLQMNSLKPEDTAVYYCAAGGSGSGPYGYGYWGQGTKVTVSS”, the “polyreactivity (PSR sort gate)” value is recorded as “high polyreactivity”.

Regarding “QVQLVETGAGLVQAGGSLRLSCAASGILLFNAMGWNTQPPGKERELVAAINSGGSTNYADSVKGRFTISRDNAKNTVYFQMNSLIPEDTAVYFCAKDTPFTLRVWAEGGMDYWGHGTQVTVSS”, the “polyreactivity (PSR sort gate)” value is on record as “low polyreactivity”.

Take “QVQLVETGGGLDQAGGSLRLSCAASGRIFRKYVMGWYRQAPGKERELVAVISSGASTNYADSVKGRFTISRDNAKNTVYLQMNSLKPEDTAVYYCAKYGKYTWRQGGYWGQGTQVTVSS”: the “polyreactivity (PSR sort gate)” value is “high polyreactivity”.

Regarding “QVQLVETGGGLFQAGGSLRLSCAASGSTFVYYAMGWYRQPPGKERELVAAISSGGNTKYADSVKGRFTISRDNAKNTFYLQMNSLKPEDTAVYYCARETQSYYDHDYWGQGTQVTLSS”, the “polyreactivity (PSR sort gate)” value is listed as “low polyreactivity”.

For the sequence “QVQLVETGGGLVHAGGSLRLSCAASGRIFHINAMGWYRQAPGKERELVAAISSGGRTNYADSVKGRFTISRDNAKNTVYLQMNSLKPEDTAVYYCARQYTYGPNRWYGYWGQGTQVTVSS”, the “polyreactivity (PSR sort gate)” value is on record as “high polyreactivity”.

In the case of “QVQLVETGGGLVQAAGSLRLSSAASGSTFLANTMGWYRQEPGKEREFVAAITRRGGSTYYADSVKGRFTISRDNAKNTVYLQMNSLKPEDTAVYYCNADWYFQYPYDYWGQGTQVTVSS”, the “polyreactivity (PSR sort gate)” value is listed as “low polyreactivity”.
